Data published in patent US20140294898A1 (published 2014).

Tests used:
hPDL1(19-239)-TVMV-His = target: T1, hPDL1(19-239)-TVMV-His (human, UniProt Q9NZQ7 19-239); assay: HTRF competition, PD-1-Ig binding to PD-L1-His
T1 construct: The text says amino acids 18-239, the construct name says 19-239; also called PD-L1-His; PD-L1-TVMV-His

[1] = target: T2, human PD-L1 expressed on cells (human, UniProt Q9NZQ7 19-290); assay: cell binding assay, PE-labeled PD-1-Ig on cells over-expressing human PD-L1, high-content imaging
T2 construct: whole, on cells; In the CMV recall assay PD-L1 is the endogenous protein on donor PBMC; also called hPD-L1; LK35.2-hPD-L1
T2 sequence (Q9NZQ7 19-290): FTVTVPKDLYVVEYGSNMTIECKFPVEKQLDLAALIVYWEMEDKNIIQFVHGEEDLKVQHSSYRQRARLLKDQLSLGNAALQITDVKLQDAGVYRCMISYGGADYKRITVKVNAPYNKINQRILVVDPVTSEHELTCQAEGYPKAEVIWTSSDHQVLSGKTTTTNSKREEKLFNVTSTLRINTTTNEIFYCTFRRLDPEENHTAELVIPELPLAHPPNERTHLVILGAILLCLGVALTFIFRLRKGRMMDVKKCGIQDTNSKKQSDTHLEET

T1 sequence (Q9NZQ7 other isoform, or with tags, fused parts or gaps limits assumed): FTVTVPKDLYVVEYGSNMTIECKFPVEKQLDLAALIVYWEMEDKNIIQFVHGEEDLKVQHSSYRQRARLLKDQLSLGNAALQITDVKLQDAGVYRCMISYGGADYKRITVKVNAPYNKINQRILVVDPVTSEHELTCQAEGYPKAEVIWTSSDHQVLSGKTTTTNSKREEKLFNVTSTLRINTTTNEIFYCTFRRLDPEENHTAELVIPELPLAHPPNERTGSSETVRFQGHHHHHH

IC50 (hPDL1(19-239)-TVMV-His): 132 nM
IC50 [1]: 629 nM
B1: Example 3526 (peptide)
peptide: FFXGDVFYGYYLCG
HELM: PEPTIDE1{[O=C(C[*:3])[*:2]].F.[meF].[CCCC[C@@H](C(=O)[*:2])N(C)[*:1]].[Sar].D.V.[meF].Y.[Sar].Y.Y.L.C.G.[am]}$PEPTIDE1,PEPTIDE1,1:R3-14:R3$$$V2.0
SMILES: CCCC[C@H]1C(=O)N(C)CC(=O)N[C@@H](CC(=O)O)C(=O)N[C@@H](C(C)C)C(=O)N(C)[C@@H](Cc2ccccc2)C(=O)N[C@@H](Cc2ccc(O)cc2)C(=O)N(C)CC(=O)N[C@@H](Cc2ccc(O)cc2)C(=O)N[C@@H](Cc2ccc(O)cc2)C(=O)N[C@@H](CC(C)C)C(=O)N[C@H](C(=O)NCC(N)=O)CSCC(=O)N[C@@H](Cc2ccccc2)C(=O)N(C)[C@@H](Cc2ccccc2)C(=O)N1C
notes: ClAc-Phe-[N-Me]Phe-[N-Me]Nle-Sar-Asp-Val-[N-Me]Phe-Tyr-Sar-Tyr-Tyr-Leu-Cys-Gly-NH2, cyclised
